Target: (Ni2+-NTA)2-Cy3-His6-AGT (O6-alkylguanine-DNA alkyltransferase) (human, UniProt P16455 1-207)
Experiment: FRET

Chain of (Ni2+-NTA)2-Cy3-His6-AGT (O6-alkylguanine-DNA alkyltransferase) (P16455 whole entry): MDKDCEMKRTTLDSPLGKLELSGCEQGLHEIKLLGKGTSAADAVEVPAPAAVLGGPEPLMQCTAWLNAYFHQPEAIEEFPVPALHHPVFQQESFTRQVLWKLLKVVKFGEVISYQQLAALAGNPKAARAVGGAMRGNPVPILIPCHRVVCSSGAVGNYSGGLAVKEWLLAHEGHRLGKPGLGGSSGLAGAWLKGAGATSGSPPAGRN

Binder: GACTGACTGACTGACTGACTGACTGA (ssDNA) [FAM-DNA 26-mer]
- apparent K (half saturation): 554000 M⁻¹

From article PMC2832190
